Results on one substance are retold here after patent US20150315252A1.

For the test, the target named is CherryPicker DmrA chimeric protein. Kind of test: cell-based or functional assay.

Take AcGFP-DmrC fusion protein: the amount of AcGFP-DmrC in microvesicles produced with A/C heterodimerizer (western blot against AcGFP standards) was determined as 5 ng/µL; the amount of AcGFP-DmrC in microvesicles produced without A/C heterodimerizer (western blot against AcGFP standards) turned out to be 0.6 ng/µL; the packaging efficiency of AcGFP-DmrC into microvesicles, +A/C against -A/C is 8 fold.
